Assay results as given in patent US4423037A, “Inhibitors of peptide hormone action” (The General Hospital Corporation, priority 1982, dated 1983).

Test system: parathyroid hormone
Assay: In vivo inhibition of PTH-stimulated urinary cyclic AMP excretion in thyroparathyroidectomized vitamin D deficient rats
Details: same experiment as FIG. 1
Procedure: The compound [Tyr-34]bPTH(7-34)amide was administered in vivo as an inhibitor of PTH stimulated biological activities. The effectivenss of the treatment was measured by measuring the urinary phosphate and cyclic AMP, standard procedures well known in endocrinology as valid measure of PTH activity. The dosage of PTH analogues used varied from more than 3.0 μg/Kg/hr to less than 15 mg/Kg/hr, optimally between 0.3 mg/Kg/hr and 1.5 mg/Kg/hr. Single bolus dosages were occassionally utilized as indicated containing the equivalent of many hours of the infusion procedure.
Male weanling Holtzman rats were maintained on a purified vitamin D deficient diet containing 0.44% calcium and 0.30% phosphorous for 7 weeks. At this time, the rats weighed 130-170 g. Thyroparathyroidectomy of the vitamin D deficient rats was preformed under anesthesia with ketamin hydrochloride injected intratraperitoneally. The femoral vein was cannulated with a heparin-treated polyethylene tube, and the blood was collected via the catheter for determination of blood chemistries. When needed both femoral veins were cannulated. A polyethylene catheter was also inserted into the urinary bladder via the ventral approach. […]
FIG. 2 is an experiment identical to that shown in FIG. 1, however, urinary cyclic AMP is now measured instead of urinary phosphate. […]

B1: bovine parathyroid hormone (protein, UniProt P01268 32-115, looked up)
Parathyroid hormone: AVSEIQFMHNLGKHLSSMERVEWLRKKLQDVHNFVALGASIAYRDGSSQRPRKKEDNVLVESHQKSLGEADKADVDVLIKAKPQ
modifications: Parathyroid hormone
notes: native 84-amino acid bovine parathyroid hormone, infused as the agonist
Question: How did the “effect on urine cyclic AMP production, substance administered alone (FIG. 2)” value turn out when B1 was run?
Answer: marked effect
